Results reported in patent publication US20230097015A1 (SEOUL NATIONAL UNIVERSITY R AND DB FOUNDATION, published 2023).

Columns and labels:
4CL-MlnB COM^D = target: T1, 4CL-MlnB COM^D (Bacillus amyloliquefaciens, UniProt Q42524 1-561); assay: analytical SEC-FPLC of a 1:1 mixture and native PAGE
T1 construct: Unlabelled protein as used in SEC/native PAGE and in the two-step naringenin reaction; also called 4-coumarate-CoA ligase fused to MlnB COM donor domain; not shown: N-terminal His-tag from pET15b vector
T1 sequence: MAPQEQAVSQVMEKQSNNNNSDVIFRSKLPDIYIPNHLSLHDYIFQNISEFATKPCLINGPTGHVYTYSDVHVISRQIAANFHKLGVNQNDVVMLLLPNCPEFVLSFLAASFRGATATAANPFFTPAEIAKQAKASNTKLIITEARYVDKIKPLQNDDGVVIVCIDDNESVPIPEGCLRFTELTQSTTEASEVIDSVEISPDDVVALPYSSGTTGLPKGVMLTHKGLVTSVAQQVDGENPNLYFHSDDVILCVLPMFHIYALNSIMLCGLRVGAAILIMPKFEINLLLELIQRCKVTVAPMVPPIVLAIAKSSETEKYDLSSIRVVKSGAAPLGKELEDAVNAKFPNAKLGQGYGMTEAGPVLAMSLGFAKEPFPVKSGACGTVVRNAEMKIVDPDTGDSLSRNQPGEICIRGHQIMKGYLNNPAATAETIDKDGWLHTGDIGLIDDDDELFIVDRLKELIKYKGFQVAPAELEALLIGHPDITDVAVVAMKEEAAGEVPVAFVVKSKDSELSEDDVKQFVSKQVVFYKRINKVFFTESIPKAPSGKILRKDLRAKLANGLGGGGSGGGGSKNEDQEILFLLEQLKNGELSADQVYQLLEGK

[1] = target: T2, Cy3-labeled 4CL-MlnB COM^D (Bacillus amyloliquefaciens, UniProt Q42524 1-561, Cy3-NHS ester linked to naturally occurring lysine residues (positions not stated)); assay: Cy3/Cy5 FRET, three channels
T2 construct: Dye-labelled form used in the three-channel FRET analysis; also called 4CL-MlnB COMD labeled with Cy3; not shown: N-terminal His-tag from pET15b vector
T2 sequence: T1 sequence

MlnC COM^A-AAL = target: T3, MlnC COM^A-AAL
T3 chain: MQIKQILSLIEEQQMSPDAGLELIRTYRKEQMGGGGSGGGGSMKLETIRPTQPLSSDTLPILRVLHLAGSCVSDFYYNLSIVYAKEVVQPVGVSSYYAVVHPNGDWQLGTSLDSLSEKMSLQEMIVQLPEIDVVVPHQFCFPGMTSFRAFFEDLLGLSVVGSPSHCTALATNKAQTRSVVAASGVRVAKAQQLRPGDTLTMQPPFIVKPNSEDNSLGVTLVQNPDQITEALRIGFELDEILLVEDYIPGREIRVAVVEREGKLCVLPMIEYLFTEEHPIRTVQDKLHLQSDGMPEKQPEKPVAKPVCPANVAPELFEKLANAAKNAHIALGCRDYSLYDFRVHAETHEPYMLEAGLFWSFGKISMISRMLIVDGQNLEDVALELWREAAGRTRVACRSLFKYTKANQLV

B1: MlnC COM^A-CHS (enzyme)
chain: MQIKQILSLIEEQQMSPDAGLELIRTYRKEQMGGGGSGGGGSGGGGSMVTVEEYRKAQRAEGPATVMAIGTATPSNCVDQSTYPDFYFRITNSEHKTDLKEKFKRMCEKSMIKKRYMHLTEEILKENPSMCEYMAPSLDARQDIVVVEVPKLGKEAAQKAIKEWGQPKSKITHLVFCTTSGVDMPGCDYQLTKLLGLRPSVKRLMMYQQGCFAGGTVLRLAKDLAENNKGARVLVVCSEITAVTFRGPNDTHLDSLVGQALFGDGAGAIIIGSDPIPGVERPLFELVSAAQTLLPDSHGAIDGHLREVGLTFHLLKDVPGLISKNIEKSLEEAFKPLGISDWNSLFWIAHPGGPAILDQVEIKLGLKPEKLKATRNVLSNYGNMSSACVLFILDEMRKASAKEGLGTTGEGLEWGVLFGFGPGLTVETVVLHSVAT
notes: Unlabelled protein as used in SEC/native PAGE and in the two-step naringenin reaction; also called chalcone synthase fused to MlnC COM acceptor domain; not shown: C-terminal His-tag from pET21c vector
binding result (4CL-MlnB COM^D): binds

B2: Cy5-labeled MlnC COM^A-CHS (enzyme)
chain: B1 chain
modifications: Cy5-NHS ester linked to naturally occurring lysine residues (positions not stated)
notes: Dye-labelled form used in the three-channel FRET analysis; also called MlnC COMA-CHS labeled with Cy5; not shown: C-terminal His-tag from pET21c vector
binding result [1]: binds

B3: MlnB COM^D-CNL (protein)
chain: KNEDQEILFLLEQLKNGELSADQVYQLLEGKGGGSMAQSISLSLPQSTTPSKGVRLKIAALLKTIGTLILLLIALPLNALIVLISLMCRPFTKKPAVATHPQNILVSGGKMTKALQLARSFHAAGHRVILIEGHKYWLSGHRFSNSVSRFYTVPAPQDDPEGYTQALLEIVKREKIDVYVPVCSPVASYYDSLAKSALSEYCEVFHFDADITKMLDDKFAFTDRARSLGLSAPKSFKITDPEQVINFDFSKETRKYILKSISYDSVRRLNLTKLPCDTPEETAAFVKSLPISPEKPWIMQEFIPGKELCTHSTVRDGELRLHCCSNSSAFQINYENVENPQIQEWVQHFVKSLRLTGQISLDFIQAEDGTAYAIECNPRTHSAITMFYNHPGVAEAYLGKTPLAAPLEPLADSKPTYWIYHEIWRLTGIRSGQQLQTWFGRLVRGTDAIYRLDDPIPFLTLHHWQITLLLLQNLQRLKGWVKIDFNIGKLVELGGD
shinorine production in Saccharomyces cerevisiae (HPLC), against free or singly fused CNL and AAL (MlnC COM^A-AAL): shinorine production increased by about 1.3 times
